B1: cdr2 225-233 LVLKENSEL (peptide)
peptide: LVLKENSEL
B2: cdr2 418-426 TPPEYKALF (peptide)
peptide: TPPEYKALF
B3: cdr2 444-452 RTKYRSLSS (peptide)
peptide: RTKYRSLSS
B4: cdr2 275-283 VPDSLYVPF (peptide)
peptide: VPDSLYVPF
B5: cdr2 229-237 ENSELEQQL (peptide)
peptide: ENSELEQQL
B6: cdr2 205-213 LQAQLSLER (peptide)
peptide: LQAQLSLER
B7: cdr2 379-387 VQTSRAAAK (peptide)
peptide: VQTSRAAAK
B8: cdr2 317-325 SLAGSDIVK (peptide)
peptide: SLAGSDIVK
B9: cdr2 74-82 RQMNEQHAK (peptide)
peptide: RQMNEQHAK
B10: cdr2 296-304 LTVPESHRK (peptide)
peptide: LTVPESHRK
B11: cdr2 427-435 KEIFSCIKK (peptide)
peptide: KEIFSCIKK
B12: cdr2 236-244 QLGATGAYR (peptide)
peptide: QLGATGAYR
B13: cdr2 300-308 ESHRKPLKR (peptide)
peptide: ESHRKPLKR
B14: cdr2 140-148 GQGRRSPGK (peptide)
peptide: GQGRRSPGK
B15: cdr2 331-339 CIRRAKAVK (peptide)
peptide: CIRRAKAVK
B16: cdr2 265-273 HPFVNGVEK (peptide)
peptide: HPFVNGVEK
B17: cdr2 154-162 PAPSFACLK (peptide)
peptide: PAPSFACLK

biological target: HLA-B*0702 (human); experiment: iTopia off-rate

t1/2 | Binder
0.49 | B1
1.26 | B2
1.83 | B3
0.58 | B4
1.13 | B5

biological target: HLA-A*1101 (human); experiment: iTopia net score

iScore | Binder
0.118 | B6
0.343 | B7
0.283 | B8
0.396 | B9
0.558 | B10
0.392 | B11
0.038 | B12
0.063 | B13
0.633 | B14

biological target: T1, HLA-A*0201 (human); experiment: iTopia net score;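 further: combined score from peptide binding, ED₅₀ and half-life of peptide complexes with plate-bound HLA-A2 molecules, computed by a proprietary formula in iTopia software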
T1 construct: also called HLA-A2.1; HLA A2.1

iScore | Binder
0.119 | B1

biological target: T1, HLA-A*0201; experiment: iTopia binding;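 further: each peptide tested for binding to HLA-A2 molecules immobilized on plates, using a commercial screening kit run per its supplied protocol and reagents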

binding vs positive control | Binder
> 30% | B1

biological target: HLA-A*0301 (human); experiment: iTopia affinity

ED50 | Binder
14 µM | B15
19 µM | B6
18 µM | B7
11 µM | B8
58 µM | B9
26 µM | B10
13 µM | B11
34 µM | B16
15 µM | B12
19 µM | B13
7.8 µM | B14
11 µM | B17

biological target: HLA-A*2402 (human); experiment: iTopia net score;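 further: iScore from iTopia software combining peptide binding, affinity over a dilution series and off-rate after warming to body temperature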

iScore | Binder
0.084 | B2
0.116 | B4

biological target: HLA-A*1101 (human); experiment: iTopia off-rate

t1/2 | Binder
0.56 | B6
1.5 | B7
0.74 | B8
3.85 | B9
4.59 | B10
3.74 | B11
0.2 | B12
0.35 | B13
2.8 | B14

biological target: HLA-B*0702 (human); experiment: iTopia net score

iScore | Binder
0.054 | B1
0.027 | B2
0.031 | B3
0.068 | B4
0.05 | B5

biological target: HLA-A*0301 (human); experiment: iTopia net score

iScore | Binder
0.436 | B15
0.087 | B6
0.279 | B7
0.14 | B8
0.147 | B9
0.128 | B10
0.231 | B11
0.05 | B16
0.122 | B12
0.147 | B13
0.258 | B14
0.122 | B17

biological target: HLA-A*0301 (human); experiment: iTopia off-rate

t1/2 | Binder
6.47 | B15
0.99 | B6
2.55 | B7
0.88 | B8
3.69 | B9
1.53 | B10
5.82 | B11
0.61 | B16
0.92 | B12
1.49 | B13
1.64 | B14
2.19 | B17

biological target: T1, HLA-A*0201; experiment: iTopia off-rate;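 further: Half-life of peptide complexes with plate-bound HLA-A2, peptides loaded 18 h at 21 C, washed, then held at 37 C over several time points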

t1/2 | Binder
0.8 | B1

biological target: HLA-A*2402 (human); experiment: iTopia off-rate

t1/2 | Binder
0.46 | B2
1.26 | B4

biological target: HLA-A*2402 (human); experiment: iTopia affinity;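 further: peptide binding to HLA-A*2402 measured in iTopia kit format across eight serial peptide dilutions, ED50 derived from the resulting titration curve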

ED50 | Binder
11 µM | B2
9.2 µM | B4

biological target: T1, HLA-A*0201; experiment: iTopia affinity;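 further: peptide affinity for plate-bound HLA-A2 molecules (iTopia system), with ED50 derived from an eight-point serial peptide dilution series run under binding assay conditions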

ED50 | Binder
7 µM | B1

biological target: HLA-B*0702 (human); experiment: iTopia affinity

ED50 | Binder
34 µM | B1
100 µM | B2
73 µM | B3
47 µM | B4
93 µM | B5

biological target: HLA-A*1101 (human); experiment: iTopia affinity;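 further: affinity derived from a titration of eight serial peptide dilutions, each run under the same conditions as the binding screen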

ED50 | Binder
11 µM | B6
4.6 µM | B7
2.1 µM | B8
11 µM | B9
4.8 µM | B10
7 µM | B11
27 µM | B12
26 µM | B13
2 µM | B14

Source: patent US20090208538A1 (ROCKEFELLER UNIVERSITY, published 2009)
